Results from patent US20100016434.

Target: T1, biotinylated HIF1α peptide, Q16665
T1 chain: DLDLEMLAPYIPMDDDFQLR

B1: EGLN3 in vitro translate (protein)
chain: MPLGHIMRLDLEKIALEYIVPCLHEVGFCYLDNFLGEVVGDCVLERVKQLHCTGALRDGQLAGPRAGVSKRHLRGDQITWIGGNEEGCEAISFLLSLIDRLVLYCGSRLGKYYVKERSKAMVACYPGNGTGYVRHVDNPNGDGRCITCIYYLNKNWDAKLHGGILRIFPEGKSFIADVEPIFDRLLFFWSDRRNPHEVQPSYATRYAMTVWYFDAEERAEAKKKFRNLTRKTESALTED
  EGLN3 prolyl hydroxylase activity on the HIF1α peptide, read by capture of 35S-labeled pVHL: EGLN3 hydroxylase activity was diminished in the face of increasing amount of succinate
